Experimental data taken from PMC6555819, “Comprehensive study of nuclear receptor DNA binding provides a revised framework for understanding receptor specificity”.

Assays:
THRa:RXRa = THRa:RXRa (Homo sapiens, UniProt P10827;P19793 full;full); experiment: no ligand; PBM; 90 nM : 90 nM RXRa; PBS pH 7.4, 2% milk, 0.02% Triton X-100, 1 mM DTT, BSA, 0.4 mg/ml salmon testes DNA; settings: tags: His kept;His cleaved; copies: 1;1; label: surface-attached array probe
FXR:RXRa = FXR:RXRa (Homo sapiens, UniProt Q96RI1;P19793 full;full); experiment: no ligand; PBM; 270 nM : 90 nM RXRa; PBS pH 7.4, 2% milk, 0.02% Triton X-100, 1 mM DTT, BSA, 0.4 mg/ml salmon testes DNA; settings: tags: His kept;His cleaved; copies: 1;1; label: surface-attached array probe
Outline: (§1)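 The probes on custom Agilent 4×180K protein-binding microarrays were double-stranded, with 34-nt variable regions bearing direct-repeat seeds, single-nucleotide variants, half-site ablations and random human genomic background sequences. Incubation lasted 1 h with ligand-free nuclear receptor dimers in PBS pH 7.4, 2% milk, 0.02% Triton X-100, 1 mM DTT, 0.2 mg/mL BSA and 0.4 mg/ml salmon testes DNA. Antibodies against each partner (one per run) detected bound dimers, and fluorescence scans were regression-normalized. Binding z-scores take the random background probes as reference.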

RARg:RXRa = RARg:RXRa (Homo sapiens, UniProt P13631;P19793 full;full); experiment: as above; settings: tags: His kept;His cleaved; copies: 1;1; label: surface-attached array probe
Outline: as §1

RXRa = RXRa (Homo sapiens, UniProt P19793); experiment: no ligand; PBM; 180 nM; PBS pH 7.4, 2% milk, 0.02% Triton X-100, 1 mM DTT, BSA, 0.4 mg/ml salmon testes DNA; settings: tags: His cleaved; chain copies: 2; label: surface-attached array probe
RARb:RXRa = RARb:RXRa (Homo sapiens, UniProt P10826;P19793 full;full); experiment: no ligand; PBM; 270 nM : 90 nM RXRa; PBS pH 7.4, 2% milk, 0.02% Triton X-100, 1 mM DTT, BSA, 0.4 mg/ml salmon testes DNA; settings: tags: His kept;His cleaved; copies: 1;1; label: surface-attached array probe
Outline: as §1

LXRb:RXRa = LXRb:RXRa (Homo sapiens, UniProt P55055;P19793 full;full); experiment: as above; settings: tags: His kept;His cleaved; copies: 1;1; label: surface-attached array probe
Outline: as §1

PPARa:RXRa = PPARa:RXRa (Homo sapiens, UniProt Q07869;P19793 full;full); experiment: as above; settings: tags: GST kept;His cleaved; copies: 1;1; label: surface-attached array probe
Outline: as §1

LXRa:RXRa = LXRa:RXRa (Homo sapiens, UniProt Q13133;P19793 full;full); experiment: as above; settings: tags: His kept;His cleaved; copies: 1;1; label: surface-attached array probe
Outline: as §1

VDR:RXRa = VDR:RXRa (Homo sapiens, UniProt P11473;P19793 full;full); experiment: as above; settings: tags: His kept;His cleaved; copies: 1;1; label: surface-attached array probe
Outline: as §1

Chain of LXRa:RXRa (Q13133 whole entry, chain 1 of 2): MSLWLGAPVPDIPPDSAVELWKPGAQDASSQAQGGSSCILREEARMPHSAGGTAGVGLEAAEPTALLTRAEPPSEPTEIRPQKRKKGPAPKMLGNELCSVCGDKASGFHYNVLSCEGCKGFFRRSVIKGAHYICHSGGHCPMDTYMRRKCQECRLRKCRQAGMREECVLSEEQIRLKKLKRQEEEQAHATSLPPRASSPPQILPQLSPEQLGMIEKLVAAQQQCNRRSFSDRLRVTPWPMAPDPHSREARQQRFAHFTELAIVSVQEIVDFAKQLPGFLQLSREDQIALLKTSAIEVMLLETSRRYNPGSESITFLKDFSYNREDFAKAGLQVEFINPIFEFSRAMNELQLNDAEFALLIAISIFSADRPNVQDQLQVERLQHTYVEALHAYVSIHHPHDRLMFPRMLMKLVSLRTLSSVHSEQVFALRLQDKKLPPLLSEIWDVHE
Chain of LXRa:RXRa (P19793 whole entry, chain 2 of 2): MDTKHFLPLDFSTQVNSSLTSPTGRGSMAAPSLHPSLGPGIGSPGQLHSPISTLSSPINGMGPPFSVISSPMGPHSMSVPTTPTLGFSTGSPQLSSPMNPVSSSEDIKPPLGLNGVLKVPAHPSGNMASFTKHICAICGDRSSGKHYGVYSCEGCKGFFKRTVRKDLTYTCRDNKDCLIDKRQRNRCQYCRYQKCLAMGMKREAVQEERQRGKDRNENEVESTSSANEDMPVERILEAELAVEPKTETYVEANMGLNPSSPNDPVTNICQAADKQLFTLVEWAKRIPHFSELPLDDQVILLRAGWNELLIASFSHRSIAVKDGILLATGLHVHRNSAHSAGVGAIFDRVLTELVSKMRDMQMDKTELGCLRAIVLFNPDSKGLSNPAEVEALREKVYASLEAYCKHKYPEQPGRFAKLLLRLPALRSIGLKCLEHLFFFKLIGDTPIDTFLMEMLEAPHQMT
Chain of THRa:RXRa (P10827 other isoform, or with tags, fused parts or gaps, chain 1 of 2): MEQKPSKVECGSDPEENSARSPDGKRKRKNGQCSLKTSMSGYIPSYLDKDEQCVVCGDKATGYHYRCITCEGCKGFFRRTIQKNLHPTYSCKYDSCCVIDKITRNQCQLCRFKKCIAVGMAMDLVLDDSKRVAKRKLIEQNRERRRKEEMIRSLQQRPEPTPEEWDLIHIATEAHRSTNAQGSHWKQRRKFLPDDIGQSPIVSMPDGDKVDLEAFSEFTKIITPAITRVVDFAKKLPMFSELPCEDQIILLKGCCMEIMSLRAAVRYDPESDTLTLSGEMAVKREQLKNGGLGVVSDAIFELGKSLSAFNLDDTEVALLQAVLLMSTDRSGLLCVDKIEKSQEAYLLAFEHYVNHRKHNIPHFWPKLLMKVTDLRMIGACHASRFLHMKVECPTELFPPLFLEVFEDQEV
Chain of THRa:RXRa (P19793 whole entry, chain 2 of 2): as the sequence (P19793 whole entry, chain 2 of 2) above
Chain of RARg:RXRa (P13631 whole entry, chain 1 of 2): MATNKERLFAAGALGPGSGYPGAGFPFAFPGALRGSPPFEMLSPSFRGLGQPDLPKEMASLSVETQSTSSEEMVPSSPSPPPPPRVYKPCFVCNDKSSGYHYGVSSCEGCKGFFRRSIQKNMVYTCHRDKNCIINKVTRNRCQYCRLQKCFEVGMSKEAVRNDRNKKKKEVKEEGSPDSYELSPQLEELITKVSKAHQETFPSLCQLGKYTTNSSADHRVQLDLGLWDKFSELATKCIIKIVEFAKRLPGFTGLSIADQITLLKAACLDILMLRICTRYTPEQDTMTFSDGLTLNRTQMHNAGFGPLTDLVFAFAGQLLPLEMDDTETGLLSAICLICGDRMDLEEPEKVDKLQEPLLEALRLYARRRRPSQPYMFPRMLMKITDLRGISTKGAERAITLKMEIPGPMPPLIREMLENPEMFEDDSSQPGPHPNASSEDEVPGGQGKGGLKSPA
Chain of RARg:RXRa (P19793 whole entry, chain 2 of 2): as the sequence (P19793 whole entry, chain 2 of 2) above
Chain of RARb:RXRa (P10826 whole entry, chain 1 of 2): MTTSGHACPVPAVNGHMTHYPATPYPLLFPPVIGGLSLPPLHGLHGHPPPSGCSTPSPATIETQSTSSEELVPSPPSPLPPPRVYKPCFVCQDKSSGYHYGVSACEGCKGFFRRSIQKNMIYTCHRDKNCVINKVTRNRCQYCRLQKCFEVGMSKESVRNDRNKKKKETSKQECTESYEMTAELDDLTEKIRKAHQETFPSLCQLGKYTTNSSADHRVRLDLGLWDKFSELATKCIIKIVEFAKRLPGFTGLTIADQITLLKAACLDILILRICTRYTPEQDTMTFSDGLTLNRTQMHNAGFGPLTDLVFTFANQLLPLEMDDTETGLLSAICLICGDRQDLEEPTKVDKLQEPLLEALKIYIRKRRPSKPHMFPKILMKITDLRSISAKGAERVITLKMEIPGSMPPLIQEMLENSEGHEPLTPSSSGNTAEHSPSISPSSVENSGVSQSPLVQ
Chain of RARb:RXRa (P19793 whole entry, chain 2 of 2): as the sequence (P19793 whole entry, chain 2 of 2) above
Chain of PPARa:RXRa (Q07869 whole entry, chain 1 of 2): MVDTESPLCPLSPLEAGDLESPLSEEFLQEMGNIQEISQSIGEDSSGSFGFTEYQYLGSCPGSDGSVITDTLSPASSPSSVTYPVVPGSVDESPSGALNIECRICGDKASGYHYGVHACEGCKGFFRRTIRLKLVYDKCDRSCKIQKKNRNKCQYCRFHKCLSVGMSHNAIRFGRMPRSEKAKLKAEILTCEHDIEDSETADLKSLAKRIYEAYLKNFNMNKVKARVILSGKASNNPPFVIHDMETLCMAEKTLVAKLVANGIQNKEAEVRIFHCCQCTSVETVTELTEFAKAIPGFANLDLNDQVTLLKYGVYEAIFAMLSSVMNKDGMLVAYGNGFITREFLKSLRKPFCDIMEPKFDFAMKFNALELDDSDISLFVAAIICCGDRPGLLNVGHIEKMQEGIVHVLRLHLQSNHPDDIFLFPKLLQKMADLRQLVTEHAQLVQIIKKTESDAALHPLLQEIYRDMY
Chain of PPARa:RXRa (P19793 whole entry, chain 2 of 2): as the sequence (P19793 whole entry, chain 2 of 2) above
Chain of RXRa (P19793 whole entry): as the sequence (P19793 whole entry, chain 2 of 2) above
Chain of LXRb:RXRa (P55055 whole entry, chain 1 of 2): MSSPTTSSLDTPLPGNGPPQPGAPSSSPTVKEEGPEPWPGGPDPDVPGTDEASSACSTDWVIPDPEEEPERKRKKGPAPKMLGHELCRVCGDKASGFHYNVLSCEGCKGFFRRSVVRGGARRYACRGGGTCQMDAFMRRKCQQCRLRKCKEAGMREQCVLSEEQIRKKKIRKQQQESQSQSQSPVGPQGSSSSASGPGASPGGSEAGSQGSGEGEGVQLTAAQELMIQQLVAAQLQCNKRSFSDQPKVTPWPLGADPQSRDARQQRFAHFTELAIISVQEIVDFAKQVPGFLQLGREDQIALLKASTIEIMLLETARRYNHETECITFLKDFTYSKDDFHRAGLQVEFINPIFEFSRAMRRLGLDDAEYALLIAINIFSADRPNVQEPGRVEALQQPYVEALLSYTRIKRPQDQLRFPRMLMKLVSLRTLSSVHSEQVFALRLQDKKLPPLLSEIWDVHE
Chain of LXRb:RXRa (P19793 whole entry, chain 2 of 2): as the sequence (P19793 whole entry, chain 2 of 2) above
Chain of VDR:RXRa (P11473 whole entry, chain 1 of 2): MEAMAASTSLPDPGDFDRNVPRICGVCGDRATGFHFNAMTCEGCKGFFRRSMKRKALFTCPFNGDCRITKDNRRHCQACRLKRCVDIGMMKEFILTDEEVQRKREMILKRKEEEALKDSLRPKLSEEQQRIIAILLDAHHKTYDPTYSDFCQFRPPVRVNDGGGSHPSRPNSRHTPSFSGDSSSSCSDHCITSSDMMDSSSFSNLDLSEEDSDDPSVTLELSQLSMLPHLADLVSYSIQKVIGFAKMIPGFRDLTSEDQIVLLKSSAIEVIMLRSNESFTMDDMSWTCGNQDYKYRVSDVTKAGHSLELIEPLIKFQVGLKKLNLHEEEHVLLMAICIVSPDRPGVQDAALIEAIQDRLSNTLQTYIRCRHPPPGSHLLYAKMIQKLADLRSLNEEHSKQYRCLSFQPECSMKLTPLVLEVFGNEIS
Chain of VDR:RXRa (P19793 whole entry, chain 2 of 2): as the sequence (P19793 whole entry, chain 2 of 2) above
Chain of FXR:RXRa (Q96RI1 whole entry, chain 1 of 2): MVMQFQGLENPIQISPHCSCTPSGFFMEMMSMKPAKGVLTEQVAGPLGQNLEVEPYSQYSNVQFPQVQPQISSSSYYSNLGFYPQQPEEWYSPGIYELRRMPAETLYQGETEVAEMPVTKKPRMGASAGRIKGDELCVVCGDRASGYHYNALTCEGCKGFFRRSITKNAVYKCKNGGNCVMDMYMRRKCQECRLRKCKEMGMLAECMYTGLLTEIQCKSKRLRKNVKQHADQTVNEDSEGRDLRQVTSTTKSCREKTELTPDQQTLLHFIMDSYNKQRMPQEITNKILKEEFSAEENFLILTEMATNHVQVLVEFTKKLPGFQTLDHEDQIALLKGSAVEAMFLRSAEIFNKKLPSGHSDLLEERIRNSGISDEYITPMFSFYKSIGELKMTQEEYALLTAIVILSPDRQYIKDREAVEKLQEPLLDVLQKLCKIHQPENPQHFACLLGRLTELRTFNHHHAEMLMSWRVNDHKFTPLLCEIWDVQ
Chain of FXR:RXRa (P19793 whole entry, chain 2 of 2): as the sequence (P19793 whole entry, chain 2 of 2) above

Binder	binding signal (THRa:RXRa)	binding signal (RARg:RXRa)	binding signal (RARb:RXRa)	further results
NRC3_random_hg19_406_o1 (dsDNA) DNA 1: GCGAAGAACCTCCAAACTGTTCTCCATGGTAGTTGTGCGATTGACAGCGTAGAATGAAGG DNA 2: CCTTCATTCTACGCTGTCAATCGCACAACTACCATGGAGAACAGTTTGGAGGTTCTTCGC	-0.25 PBM z-score against 500 random probes	-0.45 PBM z-score against 500 random probes		binding signal (FXR:RXRa): -0.19 PBM z-score against 500 random probes; binding signal (RXRa): -0.04 PBM z-score against 500 random probes
NRC3_random_hg19_10_o1 (dsDNA) DNA 1: GCAGCCTCCTGTTGGGTGGTCTGGTCCACCTCCTCAGCGATTGACAGCGTAGAATGAAGG DNA 2: CCTTCATTCTACGCTGTCAATCGCTGAGGAGGTGGACCAGACCACCCAACAGGAGGCTGC	-1.74 PBM z-score against 500 random probes	-1.37 PBM z-score against 500 random probes	-0.72 PBM z-score against 500 random probes	binding signal (FXR:RXRa): -0.8 PBM z-score against 500 random probes; binding signal (RXRa): -1.64 PBM z-score against 500 random probes
NRC3_wobSeed109_DR4_G25A_o1 (dsDNA) DNA 1: GCCGTCCAAGGTCATAGGAGGTCAATGAAGACAGATGCGATTGACAGCGTAGAATGAAGG DNA 2: CCTTCATTCTACGCTGTCAATCGCATCTGTCTTCATTGACCTCCTATGACCTTGGACGGC	5.65 PBM z-score against 500 random probes		5.71 PBM z-score against 500 random probes	binding signal (LXRb:RXRa): 7.06 PBM z-score against 500 random probes; binding signal (PPARa:RXRa): 6.49 PBM z-score against 500 random probes
NRC3_wobSeed109_DR4_G17T_o1 (dsDNA) DNA 1: GCCGTCCAAGGTCATATGAGGTCAGTGAAGACAGATGCGATTGACAGCGTAGAATGAAGG DNA 2: CCTTCATTCTACGCTGTCAATCGCATCTGTCTTCACTGACCTCATATGACCTTGGACGGC	5.58 PBM z-score against 500 random probes			binding signal (LXRa:RXRa): 7.97 PBM z-score against 500 random probes
NRC3_wobSeed114_DR4_G17T_o1 (dsDNA) DNA 1: GCAATACAGGGTCATCTTAGGCCAGAGTACGCACAGGCGATTGACAGCGTAGAATGAAGG DNA 2: CCTTCATTCTACGCTGTCAATCGCCTGTGCGTACTCTGGCCTAAGATGACCCTGTATTGC	5.49 PBM z-score against 500 random probes			binding signal (LXRa:RXRa): 7.35 PBM z-score against 500 random probes
NRC3_wobSeed101_DR4_C18A_o1 (dsDNA) DNA 1: GCCCTTACGGGTCACTCAAGGTTATAGCATCGGAGTGCGATTGACAGCGTAGAATGAAGG DNA 2: CCTTCATTCTACGCTGTCAATCGCACTCCGATGCTATAACCTTGAGTGACCCGTAAGGGC	5.41 PBM z-score against 500 random probes			binding signal (LXRb:RXRa): 6.18 PBM z-score against 500 random probes
NRC3_wobSeed37_DR1_G22A_o1 (dsDNA) DNA 1: GCCGTCCAAGGTCAAAGGTCAATGAAGAGATGACGGGCGATTGACAGCGTAGAATGAAGG DNA 2: CCTTCATTCTACGCTGTCAATCGCCCGTCATCTCTTCATTGACCTTTGACCTTGGACGGC	5.12 PBM z-score against 500 random probes	9.11 PBM z-score against 500 random probes		binding signal (LXRb:RXRa): 7.29 PBM z-score against 500 random probes; binding signal (PPARa:RXRa): 7.52 PBM z-score against 500 random probes; binding signal (RXRa): 10.7 PBM z-score against 500 random probes
NRC3_wobSeed136_DR5_C24A_o1 (dsDNA) DNA 1: GCTAGCCTAGGTCATTCAGGGGCAAGTATAGAAAGCGCGATTGACAGCGTAGAATGAAGG DNA 2: CCTTCATTCTACGCTGTCAATCGCGCTTTCTATACTTGCCCCTGAATGACCTAGGCTAGC	5.06 PBM z-score against 500 random probes	4.49 PBM z-score against 500 random probes		binding signal (LXRa:RXRa): 6.65 PBM z-score against 500 random probes
NRC3_wobSeed133_DR5_T19A_o1 (dsDNA) DNA 1: GCCGTCCAAGGTCAATGCAAGGTCAGTGAAAGCATTGCGATTGACAGCGTAGAATGAAGG DNA 2: CCTTCATTCTACGCTGTCAATCGCAATGCTTTCACTGACCTTGCATTGACCTTGGACGGC	5 PBM z-score against 500 random probes	8.21 PBM z-score against 500 random probes	5.87 PBM z-score against 500 random probes	
NRC3_wobSeed103_DR4_G23C_o1 (dsDNA) DNA 1: GCGCATATAGGTAATACAAGGTCAAAGTCCGATTGTGCGATTGACAGCGTAGAATGAAGG DNA 2: CCTTCATTCTACGCTGTCAATCGCACAATCGGACTTTGACCTTGTATTACCTATATGCGC	4.92 PBM z-score against 500 random probes			binding signal (LXRa:RXRa): 7 PBM z-score against 500 random probes
NRC3_wobSeed13_DR0_G21C_o1 (dsDNA) DNA 1: GCCGTCCAAGGTCAAGGTCACTGAAAGAGACTCGAAGCGATTGACAGCGTAGAATGAAGG DNA 2: CCTTCATTCTACGCTGTCAATCGCTTCGAGTCTCTTTCAGTGACCTTGACCTTGGACGGC	4.85 PBM z-score against 500 random probes	7.34 PBM z-score against 500 random probes	5.97 PBM z-score against 500 random probes	binding signal (PPARa:RXRa): 6.7 PBM z-score against 500 random probes; binding signal (RXRa): 7.81 PBM z-score against 500 random probes
NRC3_wobSeed141_DR5_T11G_o1 (dsDNA) DNA 1: GCAGTCAAAGGTCAGGACGAGGTAACGTAAAGCACGGCGATTGACAGCGTAGAATGAAGG DNA 2: CCTTCATTCTACGCTGTCAATCGCCGTGCTTTACGTTACCTCGTCCTGACCTTTGACTGC	4.79 PBM z-score against 500 random probes	7.48 PBM z-score against 500 random probes	5.96 PBM z-score against 500 random probes	
NRC3_wobSeed120_DR4_G20A_o1 (dsDNA) DNA 1: GCCCGAGTAGGTTACGAGGAGGCATTCAGTGCGAATGCGATTGACAGCGTAGAATGAAGG DNA 2: CCTTCATTCTACGCTGTCAATCGCATTCGCACTGAATGCCTCCTCGTAACCTACTCGGGC	0.17 PBM z-score against 500 random probes			binding signal (VDR:RXRa): 0.09 PBM z-score against 500 random probes
NRC3_wobSeed88_DR3_G11T_o1 (dsDNA) DNA 1: GCTAGCCTAGTTCATGCGGGCCAGTATAGTGTCGGCGCGATTGACAGCGTAGAATGAAGG DNA 2: CCTTCATTCTACGCTGTCAATCGCGCCGACACTATACTGGCCCGCATGAACTAGGCTAGC	0.14 PBM z-score against 500 random probes	0.41 PBM z-score against 500 random probes		binding signal (LXRa:RXRa): 0.09 PBM z-score against 500 random probes
NRC3_random_hg19_346_o1 (dsDNA) DNA 1: GCGCCTTCTGCTACAGGGCAAAGGTGGCACACAAAGGCGATTGACAGCGTAGAATGAAGG DNA 2: CCTTCATTCTACGCTGTCAATCGCCTTTGTGTGCCACCTTTGCCCTGTAGCAGAAGGCGC	0.22 PBM z-score against 500 random probes			binding signal (LXRa:RXRa): 0 PBM z-score against 500 random probes
NRC3_random_hg19_16_o1 (dsDNA) DNA 1: GCGTTGTATCGTGTTATGTATGAGAGTCAGGATCTTGCGATTGACAGCGTAGAATGAAGG DNA 2: CCTTCATTCTACGCTGTCAATCGCAAGATCCTGACTCTCATACATAACACGATACAACGC	0.16 PBM z-score against 500 random probes			binding signal (LXRb:RXRa): 0.41 PBM z-score against 500 random probes
NRC3_random_hg19_173_o1 (dsDNA) DNA 1: GCATCCACCACCATGCAGAGGCAAGAATGGTCAGGCGCGATTGACAGCGTAGAATGAAGG DNA 2: CCTTCATTCTACGCTGTCAATCGCGCCTGACCATTCTTGCCTCTGCATGGTGGTGGATGC	0.01 PBM z-score against 500 random probes			binding signal (RXRa): 0.16 PBM z-score against 500 random probes
NRC3_random_hg19_371_o1 (dsDNA) DNA 1: GCTTAAGGATGGACCATTGGCTAAAGCAATGTCAAAGCGATTGACAGCGTAGAATGAAGG DNA 2: CCTTCATTCTACGCTGTCAATCGCTTTGACATTGCTTTAGCCAATGGTCCATCCTTAAGC	-0.29 PBM z-score against 500 random probes			binding signal (LXRb:RXRa): -0.56 PBM z-score against 500 random probes
NRC3_random_hg19_397_o1 (dsDNA) DNA 1: GCGGTGTCGTGTGCCTGTGATCCCAGCTACGCAGGCGCGATTGACAGCGTAGAATGAAGG DNA 2: CCTTCATTCTACGCTGTCAATCGCGCCTGCGTAGCTGGGATCACAGGCACACGACACCGC	-0.32 PBM z-score against 500 random probes		0.07 PBM z-score against 500 random probes	binding signal (VDR:RXRa): -0.31 PBM z-score against 500 random probes; binding signal (RXRa): -0.17 PBM z-score against 500 random probes
NRC3_random_hg19_113_o1 (dsDNA) DNA 1: GCGAGATTCCAGATGAGAACTGCTCAGCCAAACTCTGCGATTGACAGCGTAGAATGAAGG DNA 2: CCTTCATTCTACGCTGTCAATCGCAGAGTTTGGCTGAGCAGTTCTCATCTGGAATCTCGC	-0.47 PBM z-score against 500 random probes		-0.57 PBM z-score against 500 random probes	binding signal (PPARa:RXRa): -0.69 PBM z-score against 500 random probes
NRC3_random_hg19_180_o1 (dsDNA) DNA 1: GCCAAGATAACCAGCTTATCTATCAGTTGGAGCAGAGCGATTGACAGCGTAGAATGAAGG DNA 2: CCTTCATTCTACGCTGTCAATCGCTCTGCTCCAACTGATAGATAAGCTGGTTATCTTGGC	-0.68 PBM z-score against 500 random probes			binding signal (LXRb:RXRa): -0.9 PBM z-score against 500 random probes
NRC3_random_hg19_222_o1 (dsDNA) DNA 1: GCGAAGCATTCTAAGAAACTTCTTCGTGATGTGTGTGCGATTGACAGCGTAGAATGAAGG DNA 2: CCTTCATTCTACGCTGTCAATCGCACACACATCACGAAGAAGTTTCTTAGAATGCTTCGC	-0.74 PBM z-score against 500 random probes	-0.49 PBM z-score against 500 random probes	-1.15 PBM z-score against 500 random probes	
